The target of assay [1] is T1, Rhesus monkey MUC16-His (rhesus monkey).
T1 construct: The entry includes the C-terminal 6xHis tag; also called membrane-proximal end of the extracellular region of the rhesus monkey MUC16 protein
T1 chain: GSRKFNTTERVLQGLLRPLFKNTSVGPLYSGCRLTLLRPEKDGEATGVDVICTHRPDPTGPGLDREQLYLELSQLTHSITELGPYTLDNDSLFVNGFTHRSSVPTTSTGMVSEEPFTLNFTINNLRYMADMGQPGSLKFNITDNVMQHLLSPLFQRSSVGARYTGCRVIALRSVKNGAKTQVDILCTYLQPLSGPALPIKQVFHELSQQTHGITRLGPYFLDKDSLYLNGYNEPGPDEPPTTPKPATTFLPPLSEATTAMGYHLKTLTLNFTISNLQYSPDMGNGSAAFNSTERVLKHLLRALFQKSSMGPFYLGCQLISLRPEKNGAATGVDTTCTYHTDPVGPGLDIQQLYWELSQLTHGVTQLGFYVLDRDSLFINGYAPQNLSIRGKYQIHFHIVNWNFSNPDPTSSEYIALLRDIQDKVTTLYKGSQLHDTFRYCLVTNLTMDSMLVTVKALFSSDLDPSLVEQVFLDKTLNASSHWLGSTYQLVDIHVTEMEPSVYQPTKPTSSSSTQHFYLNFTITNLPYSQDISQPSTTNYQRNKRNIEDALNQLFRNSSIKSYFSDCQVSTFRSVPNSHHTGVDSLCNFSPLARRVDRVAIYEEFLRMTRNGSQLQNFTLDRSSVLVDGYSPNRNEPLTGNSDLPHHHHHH
The assay is described as follows: BLI (ForteBio Octet RED96), antibody on AHC sensor, 50 nM antigen, 1:1 model. From the text:
The binding affinity of the anti-MUC-16 antibodies for the membrane-proximal end of the extracellular region of the human MUC16 protein (human MUC16-His, Table 26) and the membrane-proximal end of the extracellular region of the rhesus monkey MUC16 protein (rhesus monkey MUC16-His, Table 26) was detected by ForteBio Octet RED96, respectively. According to the manufacturer's instructions, an AHC sensor (ForteBio, Cat #18-5060) was placed in a running buffer (lx PBS, Hyclone, Cat #SH30256.01, containing 0.02% Tween 20, pH 7.0) and pre-equilibrated at room temperature for 10 min. In a 96-well plate, the kinetic assay was performed according to the following steps: a) equilibrating the baseline for 100 s with the running buffer; b) diluting the anti-MUC-16 antibodies with the running buffer to 5 μg/mL, immobilizing for 200 s, and stopping; c) equilibrating the baseline for 300 s with the running buffer; and d) diluting the human or rhesus monkey MUC16 protein with the running buffer to 50 nM, binding for 200 s, and dissociating for 600 s. The experimental data were fitted and calculated using a Fortebio Data Analysis software 1:1 binding model.
(Biolayer interferometry detects binding as a change in optical thickness at a sensor tip.)

Assay [2] addresses T2, human CD3 protein endogenously expressed on Jurkat cells (human, UniProt P07766 23-207).
T2 construct: whole, on cells; The whole CD3 complex is on the cells; also called CD3 on Jurkat cells; CD3 on Jurkat/NFAT-luc cells
The assay is described as follows: flow cytometry, Jurkat cells (endogenous CD3), PE anti-human IgG Fc secondary, MFI; EC50 table under the plot, unit from the axis Conc.(nM); curve flat at about 1250 up to about 33 nM, about 1900-2200 at the two top concentrations. The protocol:
(3) Whether the anti-CD3/anti-MUC16 bispecific antibodies in the present invention could bind to the CD3 protein endogenously expressed on Jurkat cells (Cell Bank of Type Culture Collection Committee of the Chinese Academy of Sciences, Cat #SCSP-513) was determined by cell binding experiments. Detection was performed using the flow cytometry described above, with the following differences: the dilution gradient for the test bispecific antibody was: a maximum concentration of 200 nM, starting from a second concentration of 100 nM, 5-fold dilution, 10 points; the bispecific antibodies were added to Jurkat cells, and the cells were incubated at 4° C. for 30 min. The cells were washed twice with PBS, and then fluorescent secondary antibody R-PE-conjugated AffiniPure Goat Anti-Human IgG, Fcγ Fragment Specific was added. The cells were incubated at 4° C. for 30 min. The cells were washed twice with PBS and then resuspended, and finally, fluorescence signals were detected using a BD Accuri C5 (BD Bioscience) flow cytometer.
(A flow cytometer gives signals particle by particle.)

Assay [3] addresses T1, Rhesus monkey MUC16-His. The assay is described as follows: BLI (ForteBio Octet RED96), antibody on AHC sensor, 1:1 model.
The next assay has as its target T3, Human MUC16-His (human).
T3 construct: The entry includes the C-terminal 6xHis tag; also called membrane-proximal end of the extracellular region of the human MUC16 protein; Human MUC16 protein
T3 chain: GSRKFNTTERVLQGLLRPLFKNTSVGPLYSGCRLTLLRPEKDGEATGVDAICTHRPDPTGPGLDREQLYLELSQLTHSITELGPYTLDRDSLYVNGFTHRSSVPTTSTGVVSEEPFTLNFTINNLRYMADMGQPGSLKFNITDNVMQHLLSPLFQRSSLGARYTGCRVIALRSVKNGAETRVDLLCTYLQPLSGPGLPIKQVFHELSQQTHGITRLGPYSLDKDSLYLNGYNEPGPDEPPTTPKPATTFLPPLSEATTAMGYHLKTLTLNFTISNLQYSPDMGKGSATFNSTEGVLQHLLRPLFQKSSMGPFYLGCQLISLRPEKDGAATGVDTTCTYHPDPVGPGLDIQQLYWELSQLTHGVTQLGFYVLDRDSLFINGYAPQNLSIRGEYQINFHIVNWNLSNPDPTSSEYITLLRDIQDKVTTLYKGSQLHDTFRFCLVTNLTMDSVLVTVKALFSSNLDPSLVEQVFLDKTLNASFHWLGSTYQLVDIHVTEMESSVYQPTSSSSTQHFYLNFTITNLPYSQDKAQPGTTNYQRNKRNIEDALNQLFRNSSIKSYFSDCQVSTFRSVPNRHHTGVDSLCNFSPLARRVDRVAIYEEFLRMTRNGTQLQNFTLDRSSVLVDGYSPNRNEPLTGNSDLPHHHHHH
The assay is described as above.

The record followed here is US20250092135A1 (NANJING LEADS BIOLABS, published 2025).

T2 sequence (P07766 23-207): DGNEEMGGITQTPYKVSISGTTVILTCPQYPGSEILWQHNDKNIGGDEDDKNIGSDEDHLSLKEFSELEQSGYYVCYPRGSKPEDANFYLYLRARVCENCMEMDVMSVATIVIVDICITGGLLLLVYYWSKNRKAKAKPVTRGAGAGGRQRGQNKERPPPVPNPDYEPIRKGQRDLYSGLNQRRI

B1: anti-MUC16 antibody 776.1(C33S) (antibody, human IgG1, kappa, L234A L235A, V domains shown)
VH: EVQLQQSGPELVKPGASVKISCKASGYTFTDYNIHWVKQSHGKILEWIGYIYPYNGVSDYNQNFKSKATLIVDNSSNTAYMELRSLTSEDSAVYYCARWDFGSGYYFDYWGQGTTLTVSS
VL: QIVLSQSPAILFASPGETVTMTCRASSSVIYMSWNQQKPGSSPKPWIYGTSTLASGVPTRFSGSGSGTSYSLTISRVEAEDAATYYCQQWSSNPFTFGSGTKLEIKR
In the assay with Rhesus monkey MUC16-His [1], B1 displayed a Kd of 1.03 nM, a koff of 0.000826 s⁻¹ and a kon of 803000 M⁻¹ s⁻¹.

B2: anti-CD3/MUC16 bispecific antibody MCH7-23L2-MCH7 (bispecific antibody, human IgG1, kappa, L234A L235A)
heavy 1: QVQLVQSGAEVKKPGASVKVSCKASGYTFTDYNIHWVRQAPGQGLEWMGYIYPYNGVSDYNQNFKSRVTMTTDTSTSTAYMELRSLRSDDTAVYYCARWDFGSGYYFDYWGQGTLVTVSSASTKGPSVFPLAPSSKSTSGGTAALGCLVKDYFPEPVTVSWNSGALTSGVHTFPAVLQSSGLYSLSSVVTVPSSSLGTQTYICNVNHKPSNTKVDKKVEPKSCEVQLVESGGGLVQPGGSLKLSCAASGFTFSTYAMNWVRQAPGKGLEWVGRIRSKYNNYATYYADSVKDRFTISRDDSKNTLYLQMNSLKTEDTAVYYCTRHGNFGNSYVSWFAYWGQGTTVTVSSGGGGSGGGGSGGGGSQAVVTQEPSLTVSPGGTVTLTCRSSTGAVTTSNYANWVQQKPGQAPRGLIGGTNKRAPGVPARFSGSLLGGKAALTLSGAQPEDEAEYFCALWYSNLWVFGGGTKLTVLGEPKSSDKTHTCPPCPAPEAAGGPSVFLFPPKPKDTLMISRTPEVTCVVVAVSHEDPEVKFNWYVDGVEVHNAKTKPREEQYNSTYRVVSVLTVLHQDWLNGKEYKCKVSNKALAAPIEKTISKAKGQPREPQVCTLPPSRDELTKNQVSLSCAVKGFYPSDIAVEWESNGQPENNYKTTPPVLDSDGSFFLVSKLTVDKSRWQQGNVFSCSVMHEALHNHYTQKSLSLSPGK
heavy 2: not shown
light: EIVLTQSPATLSLSPGERATLSCRASSSVIYMSWYQQKPGQAPRLLIYGTSTLASGIPARFSGSGSGTDFTLTISSLEPEDFAVYYCQQWSSNPFTFGQGTKLEIKRTVAAPSVFIFPPSDEQLKSGTASVVCLLNNFYPREAKVQWKVDNALQSGNSQESVTEQDSKDSTYSLSSTLTLSKADYEKHKVYACEVTHQGLSSPVTKSFNRGEC
notes: MCH7-23L2ScFv-Hole (VH-CH1-scFv-Fc) + MCH7-KIH-Knob + two light chains MCL4 LC
As for B2, in assay [2], the EC50 is approximately 39.3 nM.

B3: humanized anti-MUC16 antibody Hu-L4H7 (antibody, human IgG1, kappa, L234A L235A, V domains shown)
VH: QVQLVQSGAEVKKPGASVKVSCKASGYTFTDYNIHWVRQAPGQGLEWMGYIYPYNGVSDYNQNFKSRVTMTTDTSTSTAYMELRSLRSDDTAVYYCARWDFGSGYYFDYWGQGTLVTVSS
VL: EIVLTQSPATLSLSPGERATLSCRASSSVIYMSWYQQKPGQAPRLLIYGTSTLASGIPARFSGSGSGTDFTLTISSLEPEDFAVYYCQQWSSNPFTFGQGTKLEIKR
notes: human IgG1 with L234A, L235A, D265A, P329A and kappa; Biotinylated in the CA125 ELISA; also called humanized MUC-16 antibody
In the assay with Rhesus monkey MUC16-His [3], B3 showed a Kd of 1.04 nM, a koff of 0.000263 s⁻¹ and a kon of 254000 M⁻¹ s⁻¹. Further, in the assay with Human MUC16-His, the dissociation constant (Kd) stood at 2.9 nM, the koff stood at 0.000911 s⁻¹ and the kon stood at 314000 M⁻¹ s⁻¹.

By Kd is commonly meant a measure of binding affinity in units of concentration. Broadly, the koff is the first-order rate constant of dissociation. As usually defined, the kon is a measure of how fast the partners come together. By EC50 is commonly meant the concentration that produces a half-maximal response.
